Changes are numbered by the printed parent chain.
B1: anti-HRG monoclonal antibody 3-4E (antibody, V domains shown)
VH: QVQLQQSGAELMKPGASVKISCKATGYTFSTFWMEWVKQRPGHGLEWIGEILPGSGNANYNEKFKGKATFTADTSSNTAYMQLSSLTSEDSAVYYCAIHYYGYGFAYWGQGTLVTVSA
VL: DNVLTQSPAIMSASLGERVTMTCTASSSVSSSYLHWYQQKPGSSPKLWIYTTSNLASGVPVRFSGSGSGTSYSLTISSMEAEDAATYYCHQYHRSPWTFGGGTKLEIK
notes: Mouse (BALB/c) hybridoma monoclonal, Protein A purified; biotin-labeled when used as detection antibody
B2: anti-HRG monoclonal antibody 50-6C-2A (antibody, V domains shown)
VH: EVQLQESGPGLVKPSQSLSLTCTVTGYSITSDYAWNWIRQFPGNKLEWMGYISYSGSTNYNPSLKSRISITRDTSKNQFFLQLNSVTTEDTATYYCASASYRYAWFAYWGQGTLVTVST
VL: DIQMTQTTSSLSASLGDRVTISCRASQDISNYLNWYQQKPDGTVKLLIYYTSRLHSGVPSRFSGSGSGTDYSLTISNLEQEDIGTYFCQQGNTLPTFGGGTKLEIK
notes: Mouse hybridoma monoclonal
B3: anti-HRG monoclonal antibody 6-12A-10B-9G (antibody, V domains shown)
VH: B2 VH with K65R, N84I, A97G, T119A
VL: B2 VL with M4V, G84A
notes: Mouse hybridoma monoclonal; biotin-labeled as detection antibody and for bead immobilisation
B4: anti-HRG monoclonal antibody 67-8A-5F (antibody, V domains shown)
VH: B2 VH with N59S, T119A
VL: B2 VL with H55L, G84A
notes: Mouse hybridoma monoclonal
B5: anti-HRG monoclonal antibody 65-3A (antibody, V domains shown)
VH: QVILKESGPGILQPSQTLSLTCSFSGFSLSTSGVGVSWIRQPSGKGLEWLAHIYWDDDKHYNPSLKSRLTISKDTSRNQVFLRITSVDTADTATYYCALGTVGGPWFPYWGQGTLVTVSA
VL: DVQMNQSHKFMSTSVGDRVSITCKASQDVSTAVAWYQQKPGQSPKILIYWASIRHTGVPDRFTGSGSGTDYTLTISSVQAEDLTLYYCQQHYSTPWTFGGGTKLEIK
notes: Mouse hybridoma monoclonal

Molecular target: T1, human histidine-rich glycoprotein (HRG), purified from human plasma (human, UniProt P04196 19-525)
T1 construct: also called human purified HRG; human purified HRG protein
T1 sequence: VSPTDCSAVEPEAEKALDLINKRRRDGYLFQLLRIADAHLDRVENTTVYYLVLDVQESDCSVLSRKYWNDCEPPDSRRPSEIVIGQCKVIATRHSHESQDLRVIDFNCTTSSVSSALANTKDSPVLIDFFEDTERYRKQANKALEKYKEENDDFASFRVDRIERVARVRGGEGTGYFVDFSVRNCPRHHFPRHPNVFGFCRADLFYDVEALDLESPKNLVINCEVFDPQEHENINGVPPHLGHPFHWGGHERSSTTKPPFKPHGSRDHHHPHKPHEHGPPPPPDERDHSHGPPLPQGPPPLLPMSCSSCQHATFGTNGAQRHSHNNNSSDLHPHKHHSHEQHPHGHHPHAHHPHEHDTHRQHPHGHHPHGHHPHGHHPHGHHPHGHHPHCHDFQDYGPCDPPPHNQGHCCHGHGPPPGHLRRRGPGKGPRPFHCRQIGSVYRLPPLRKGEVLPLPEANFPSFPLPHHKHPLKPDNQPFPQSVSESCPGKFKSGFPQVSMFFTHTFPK
Test: sandwich ELISA, HRG captured by solid phase 3-4E
Procedure: (§1) The capture antibody solution was dispensed at 25 μL per well into 384-well Maxisorp plates (NUNC), and the plates were incubated at room temperature for 3 hours. The plates were washed twice with 120 μL of washing solution per well (0.05% Tween 20-containing PBS). A blocking solution (1% BSA-containing PBS) was dispensed at 30 μL per well, and the plates were incubated at room temperature for 3 hours. The blocking solution was removed followed by dispensing the standard substance for evaluation at 20 μL per well (n=2), and the plates were incubated at room temperature for 3 hours. After washing the plates four times with the washing solution as described above, the solution of each detector antibody was dispensed at 10 μL per well, followed by dispensing a horseradish peroxidase-streptavidin solution (0.05 μg/mL) at 10 μL per well, and the plates were incubated at room temperature for 1 hour. After washing the plates four times with the washing solution as described above, a chromogenic substrate solution (TMB (3,3′,5,5′-tetramethylbenzidine)) was dispensed at 20 μL per well followed by incubating the plates at room temperature for 10 minutes, then a reaction stop solution 0.5 M H₂SO₄ was added at 20 μL/well, and the absorbance at 450 nm was measured.
(§2) The results regarding the evaluation of combinations chosen from 21 types of anti-HRG monoclonal antibodies are shown in Table 1. In Table 1, the absorbance at a wavelength of 450 nm of each combination was determined as follows: less than 1.0 OD: −, 1.0 OD or more and less than 2.0 OD: +, 2.0 OD or more and less than 3.0 OD: ++, and 3.0 OD or more: +++. The combinations of antibodies which could construct a sandwich ELISA system having enough level of absorbance change were 86 sets evaluated as ++ or +++ in Table 1.

Row | Binder | absorbance at 450 nm | absorbance at 450 nm (OD450)
1 | B1 | < 1 OD | 
2 | B2 |  | ≥ 3 od
3 | B3 |  | ≥ 3 od
4 | B4 |  | ≥ 3 od
5 | B5 | < 1 OD | 

Molecular target: T1, human histidine-rich glycoprotein …
Test: sandwich ELISA, HRG captured by solid phase 9-1F
Procedure: as §1, §2

Row | Binder | absorbance at 450 nm
6 | B2 | < 1 OD
7 | B3 | < 1 OD
8 | B4 | < 1 OD
9 | B5 | < 1 OD

Molecular target: T1, human histidine-rich glycoprotein …
Test: sandwich ELISA, HRG captured by solid phase 13-2G
Procedure: as §1, §2

Row | Binder | absorbance at 450 nm (OD450) | absorbance at 450 nm
10 | B1 | ≥ 3 od | 
11 | B2 |  | < 1 OD
12 | B3 |  | < 1 OD
13 | B4 |  | < 1 OD
14 | B5 | 2 to 3 od | 

Molecular target: T1, human histidine-rich glycoprotein …
Test: sandwich ELISA, HRG captured by solid phase 14-6F
Procedure: as §1, §2

Row | Binder | absorbance at 450 nm (OD450)
15 | B2 | 2 to 3 od
16 | B3 | ≥ 3 od
17 | B4 | 2 to 3 od
18 | B5 | 1 to 2 od

Molecular target: T1, human histidine-rich glycoprotein …
Test: sandwich ELISA, HRG captured by solid phase 19-1C
Procedure: as §1, §2

Row | Binder | absorbance at 450 nm
19 | B1 | < 1 OD
20 | B2 | < 1 OD
21 | B3 | < 1 OD
22 | B4 | < 1 OD
23 | B5 | < 1 OD

Molecular target: T1, human histidine-rich glycoprotein …
Test: sandwich ELISA, HRG captured by solid phase 31-1H
Procedure: as §1, §2

Row | Binder | absorbance at 450 nm
24 | B1 | < 1 OD
25 | B2 | < 1 OD
26 | B3 | < 1 OD
27 | B4 | < 1 OD
28 | B5 | < 1 OD

Molecular target: T1, human histidine-rich glycoprotein …
Test: sandwich ELISA, HRG captured by solid phase 32-4C
Procedure: as §1, §2

Row | Binder | absorbance at 450 nm
29 | B1 | < 1 OD
30 | B2 | < 1 OD
31 | B3 | < 1 OD
32 | B4 | < 1 OD
33 | B5 | < 1 OD

Molecular target: T1, human histidine-rich glycoprotein …
Test: sandwich ELISA, HRG captured by solid phase 58-5C
Procedure: as §1, §2

Row | Binder | absorbance at 450 nm (OD450)
34 | B2 | 1 to 2 od
35 | B3 | 2 to 3 od
36 | B4 | 2 to 3 od
37 | B5 | 2 to 3 od

Molecular target: T1, human histidine-rich glycoprotein …
Test: sandwich ELISA, HRG captured by solid phase 65-3A
Procedure: as §1, §2

Row | Binder | absorbance at 450 nm | absorbance at 450 nm (OD450)
38 | B1 | < 1 OD | 
39 | B2 |  | 1 to 2 od
40 | B3 |  | 2 to 3 od
41 | B4 |  | 1 to 2 od
42 | B5 | < 1 OD | 

Molecular target: T1, human histidine-rich glycoprotein …
Test: sandwich ELISA, HRG captured by solid phase 69-1A
Procedure: as §1, §2

Row | Binder | absorbance at 450 nm
43 | B1 | < 1 OD
44 | B2 | < 1 OD
45 | B3 | < 1 OD
46 | B4 | < 1 OD
47 | B5 | < 1 OD

Molecular target: T1, human histidine-rich glycoprotein …
Test: sandwich ELISA, HRG captured by solid phase 75-2D
Procedure: as §1, §2

Row | Binder | absorbance at 450 nm (OD450)
48 | B2 | ≥ 3 od
49 | B3 | ≥ 3 od
50 | B4 | ≥ 3 od
51 | B5 | 2 to 3 od

Molecular target: T1, human histidine-rich glycoprotein …
Test: sandwich ELISA, HRG captured by solid phase 81-2C
Procedure: as §1, §2

Row | Binder | absorbance at 450 nm
52 | B1 | < 1 OD
53 | B2 | < 1 OD
54 | B3 | < 1 OD
55 | B4 | < 1 OD
56 | B5 | < 1 OD

Molecular target: T1, human histidine-rich glycoprotein …
Test: sandwich ELISA, HRG captured by solid phase 88-2E
Procedure: as §1, §2

Row | Binder | absorbance at 450 nm
57 | B1 | < 1 OD
58 | B2 | < 1 OD
59 | B4 | < 1 OD

Molecular target: T1, human histidine-rich glycoprotein …
Test: sandwich ELISA, HRG captured by solid phase 93-4C
Procedure: as §1, §2

Row | Binder | absorbance at 450 nm (OD450)
60 | B2 | 2 to 3 od
61 | B3 | ≥ 3 od
62 | B4 | 2 to 3 od
63 | B5 | 2 to 3 od

Molecular target: T1, human histidine-rich glycoprotein …
Test: sandwich ELISA, HRG captured by solid phase 40-10G
Procedure: as §1, §2

Row | Binder | absorbance at 450 nm (OD450)
64 | B2 | 1 to 2 od
65 | B3 | 2 to 3 od
66 | B4 | 1 to 2 od
67 | B5 | 2 to 3 od

Molecular target: T1, human histidine-rich glycoprotein …
Test: sandwich ELISA, HRG captured by solid phase 42-10D
Procedure: as §1, §2

Row | Binder | absorbance at 450 nm
68 | B2 | < 1 OD
69 | B3 | < 1 OD
70 | B4 | < 1 OD
71 | B5 | < 1 OD

Molecular target: T1, human histidine-rich glycoprotein …
Test: sandwich ELISA, HRG captured by solid phase 50-6C-2A
Procedure: as §1, §2

Row | Binder | absorbance at 450 nm (OD450) | absorbance at 450 nm
72 | B1 | ≥ 3 od | 
73 | B2 |  | < 1 OD
74 | B3 |  | < 1 OD
75 | B4 |  | < 1 OD
76 | B5 | 2 to 3 od | 

Molecular target: T1, human histidine-rich glycoprotein …
Test: sandwich ELISA, HRG captured by solid phase 67-8A-5F
Procedure: as §1, §2

Row | Binder | absorbance at 450 nm (OD450) | absorbance at 450 nm
77 | B1 | 2 to 3 od | 
78 | B2 |  | < 1 OD
79 | B3 |  | < 1 OD
80 | B4 |  | < 1 OD
81 | B5 | 2 to 3 od | 

Molecular target: T1, human histidine-rich glycoprotein …
Test: sandwich ELISA, HRG captured by solid phase 35-3G-10C
Procedure: as §1, §2

Row | Binder | absorbance at 450 nm
82 | B1 | < 1 OD
83 | B2 | < 1 OD
84 | B3 | < 1 OD
85 | B4 | < 1 OD
86 | B5 | < 1 OD

Molecular target: T1, human histidine-rich glycoprotein …
Test: sandwich ELISA, HRG captured by solid phase 94-7A-3C-3D
Procedure: as §1, §2

Row | Binder | absorbance at 450 nm | absorbance at 450 nm (OD450)
87 | B1 | < 1 OD | 
88 | B2 |  | 1 to 2 od
89 | B3 |  | 1 to 2 od
90 | B4 |  | 1 to 2 od
91 | B5 | < 1 OD | 

Molecular target: T1, human histidine-rich glycoprotein …
Test: sandwich ELISA, HRG captured by solid phase 6-12A-10B-9G
Procedure: as §1, §2

Row | Binder | absorbance at 450 nm (OD450) | absorbance at 450 nm
92 | B1 | ≥ 3 od | 
93 | B2 |  | < 1 OD
94 | B3 |  | < 1 OD
95 | B4 |  | < 1 OD
96 | B5 | ≥ 3 od | 

— patent publication US20250258178A1 (SHIONOGI, published 2025)
